This assay concerns the target T1, His-p55 (recombinant His-tagged erythrocyte p55/MPP1) (human, UniProt Q00013-1 1-466).
T1 sequence (looked up): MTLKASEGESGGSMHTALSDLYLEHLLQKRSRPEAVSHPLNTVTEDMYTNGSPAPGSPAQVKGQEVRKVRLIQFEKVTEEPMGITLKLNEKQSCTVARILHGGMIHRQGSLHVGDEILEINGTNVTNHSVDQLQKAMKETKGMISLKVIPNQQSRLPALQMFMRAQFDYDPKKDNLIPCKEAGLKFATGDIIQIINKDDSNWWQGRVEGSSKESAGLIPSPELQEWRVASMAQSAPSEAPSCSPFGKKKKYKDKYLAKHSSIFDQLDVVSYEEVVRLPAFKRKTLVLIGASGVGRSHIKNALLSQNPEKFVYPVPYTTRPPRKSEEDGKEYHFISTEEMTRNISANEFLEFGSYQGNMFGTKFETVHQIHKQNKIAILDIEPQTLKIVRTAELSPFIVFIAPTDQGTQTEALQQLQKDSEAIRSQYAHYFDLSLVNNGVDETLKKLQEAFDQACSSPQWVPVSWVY
Description: SPR. For orientation: SPR reads the build-up and loss of mass on a sensor chip optically.

B1: MBP-NF2-N (merlin N-terminal half, aa 1-311, including the FERM domain) (domain or fragment, human, UniProt P35240 1-311, looked up)
chain: MAGAIASRMSFSSLKRKQPKTFTVRIVTMDAEMEFNCEMKWKGKDLFDLVCRTLGLRETWFFGLQYTIKDTVAWLKMDKKVLDHDVSKEEPVTFHFLAKFYPENAEEELVQEITQHLFFLQVKKQILDEKIYCPPEASVLLASYAVQAKYGDYDPSVHKRGFLAQEELLPKRVINLYQMTPEMWEERITAWYAEHRGRARDEAEMEYLKIAQDLEMYGVNYFAIRNKKGTELLLGVDALGLHIYDPENRLTPKISFPWNEIRNISYSDKEFTIKPLDKKIDVFKFNSSKLRVNKLILQLCIGNHDLFMRRR
For B1, the equilibrium dissociation constant (Kd) is 3.7 nM.

Usually Kd stands for the constant that tells how readily two partners part at equilibrium.

Source of the values: publication PMC3959803 (Experimental biology and medicine (Maywood, N.J.), 2009).
